# Columns and labels:
# ACVR2A GBD-Fc (human) [1] = biological target: ACVR2A GBD-Fc (human) (UniProt P27037); assay: SPR; BIAcore 3000; receptor-Fc (about 500 RU BMPR2-Fc WT or variants, 150 RU ACVR2A-Fc) captured on immobilised anti-human IgG (Fc), CM5 chip; single injections of 80 nM GF, single curve fits, averages of two independent injections; 25 °C; HBS/EPS (0.01 M Hepes, 0.5 M NaCl, 3 mM EDTA, 0.005% Tween 20, pH 7.4) with 0.1% bovine serum albumin; 50 μl/min; 1:1 binding model, KD = kd/ka
# [2] = biological target: BMPR2 GBD-Fc (WT) (human) (UniProt Q13873); assay: as above
# [3] = biological target: BMPR2 GBD-Fc (WT) (human) (UniProt Q13873); assay: SPR; BIAcore 3000; receptor-Fc captured on immobilised anti-human IgG (Fc), CM5 chip; titration, global fit of 2.5, 5.0, 10.0, 20.0 and 40.0 nM GF injections; 25 °C; HBS/EPS (0.01 M Hepes, 0.5 M NaCl, 3 mM EDTA, 0.005% Tween 20, pH 7.4) with 0.1% bovine serum albumin; 50 μl/min; 1:1 binding model, KD = kd/ka
# ACVR2A GBD-Fc (human) [4] = biological target: ACVR2A GBD-Fc (human) (UniProt P27037); assay: as above
# [5] = biological target: BMPR2-Fc variant G47D (human) (UniProt Q13873); assay: as above
# [6] = biological target: BMPR2 GBD-Fc (WT) (human) (UniProt Q13873); assay: as above; remark: listed apart in the source
# [7] = biological target: BMPR2-Fc variant Q92H (human) (UniProt Q13873); assay: as above
# [8] = biological target: BMPR2-Fc variant S107P (human) (UniProt Q13873); assay: as above
# [9] = biological target: BMPR2-Fc variant Q42R (human) (UniProt Q13873); assay: as above
# [10] = biological target: BMPR2-Fc variant G47D (human) (UniProt Q13873); assay: SPR; BIAcore 3000; receptor-Fc (about 500 RU BMPR2-Fc WT or variants, 150 RU ACVR2A-Fc) captured on immobilised anti-human IgG (Fc), CM5 chip; single injections of 80 nM GF, single curve fits, averages of two independent injections; 25 °C; HBS/EPS (0.01 M Hepes, 0.5 M NaCl, 3 mM EDTA, 0.005% Tween 20, pH 7.4) with 0.1% bovine serum albumin; 50 μl/min; 1:1 binding model, KD = kd/ka
# [11] = biological target: BMPR2 GBD-Fc (WT) (human) (UniProt Q13873); assay: as above; remark: listed apart in the source
# [12] = biological target: BMPR2-Fc variant Q92H (human) (UniProt Q13873); assay: as above
# [13] = biological target: BMPR2-Fc variant S107P (human) (UniProt Q13873); assay: as above
# [14] = biological target: BMPR2-Fc variant Q42R (human) (UniProt Q13873); assay: as above
# Chain of BMPR2 GBD-Fc (WT) (human) (Q13873 whole entry): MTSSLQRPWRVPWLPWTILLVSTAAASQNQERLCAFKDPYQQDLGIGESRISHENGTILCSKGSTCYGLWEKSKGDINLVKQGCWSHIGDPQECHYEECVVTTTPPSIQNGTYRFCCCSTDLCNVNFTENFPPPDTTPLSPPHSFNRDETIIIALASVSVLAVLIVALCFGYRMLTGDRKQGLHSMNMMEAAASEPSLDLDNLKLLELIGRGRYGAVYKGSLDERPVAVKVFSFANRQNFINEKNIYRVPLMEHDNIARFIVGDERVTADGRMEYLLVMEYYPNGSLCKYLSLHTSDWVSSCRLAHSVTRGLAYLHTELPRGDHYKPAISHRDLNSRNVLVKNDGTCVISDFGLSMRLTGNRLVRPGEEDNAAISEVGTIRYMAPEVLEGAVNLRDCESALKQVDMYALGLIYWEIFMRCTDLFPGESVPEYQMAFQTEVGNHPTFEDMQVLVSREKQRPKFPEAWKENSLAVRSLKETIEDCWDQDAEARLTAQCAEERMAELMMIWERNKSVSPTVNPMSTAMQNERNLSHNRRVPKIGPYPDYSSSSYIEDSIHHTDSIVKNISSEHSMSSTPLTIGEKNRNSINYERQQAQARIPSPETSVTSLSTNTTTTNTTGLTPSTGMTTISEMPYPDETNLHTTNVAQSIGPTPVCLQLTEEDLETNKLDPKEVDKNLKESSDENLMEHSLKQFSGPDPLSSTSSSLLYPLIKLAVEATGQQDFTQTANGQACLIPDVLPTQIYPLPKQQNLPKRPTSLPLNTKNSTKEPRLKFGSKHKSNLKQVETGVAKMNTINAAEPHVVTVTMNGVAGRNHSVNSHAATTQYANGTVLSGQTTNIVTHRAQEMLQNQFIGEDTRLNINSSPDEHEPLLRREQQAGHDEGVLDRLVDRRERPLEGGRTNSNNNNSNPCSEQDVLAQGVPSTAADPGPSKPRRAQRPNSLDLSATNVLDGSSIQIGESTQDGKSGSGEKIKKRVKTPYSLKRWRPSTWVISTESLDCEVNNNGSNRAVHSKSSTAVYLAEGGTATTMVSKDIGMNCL
# Chain of ACVR2A GBD-Fc (human) (P27037 whole entry): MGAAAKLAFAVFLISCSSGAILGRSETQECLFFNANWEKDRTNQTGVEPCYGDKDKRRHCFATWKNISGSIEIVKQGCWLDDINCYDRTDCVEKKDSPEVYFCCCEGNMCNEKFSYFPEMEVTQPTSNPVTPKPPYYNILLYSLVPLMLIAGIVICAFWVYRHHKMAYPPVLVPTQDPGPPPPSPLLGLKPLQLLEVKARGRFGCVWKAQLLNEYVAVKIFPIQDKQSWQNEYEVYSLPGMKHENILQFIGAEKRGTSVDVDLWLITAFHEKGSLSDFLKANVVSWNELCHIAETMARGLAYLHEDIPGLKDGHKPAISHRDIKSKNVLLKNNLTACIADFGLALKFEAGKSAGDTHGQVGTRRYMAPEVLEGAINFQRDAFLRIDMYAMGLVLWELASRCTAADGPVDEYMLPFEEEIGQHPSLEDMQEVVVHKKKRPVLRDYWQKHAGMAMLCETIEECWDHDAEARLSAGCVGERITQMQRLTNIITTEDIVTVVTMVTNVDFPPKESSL
Binder,Kd (ACVR2A GBD-Fc (human) [1]) [nM],koff (ACVR2A GBD-Fc (human) [1]) [s⁻¹],kon (ACVR2A GBD-Fc (human) [1]) [M⁻¹ s⁻¹],Kd [2] [nM],koff [2] [s⁻¹],kon [2] [M⁻¹ s⁻¹],Kd [3] [nM],koff [3] [s⁻¹],kon [3] [M⁻¹ s⁻¹],Kd [5] [nM],koff [5] [s⁻¹],kon [5] [M⁻¹ s⁻¹],Kd [7] [nM],koff [7] [s⁻¹],kon [7] [M⁻¹ s⁻¹],Kd [8] [nM],koff [8] [s⁻¹],kon [8] [M⁻¹ s⁻¹],Kd [9] [nM],koff [9] [s⁻¹],also measured
BMP15 (ligand) QADGISAEVTASSSKHSGPENNQCSLHPFQISFRQLGWDHWIIAPPFYTPNYCKGTCLRVLRDGLNSPNHAIIQNLINQLVDQSVPRPSCVPYKYVPISVLMIEANGSILYKEYEGMIAESCTCR,,,,6.3,0.0021,330000,,,,,,,,,,,,,,,
BMP10 (ligand) NAKGNYCKRTPLYIDFKEIGWDSWIIAPPGYEAYECRGVCNYPLAEHLTPTKHAIIQALVHLKNSQKASKACCVPTKLEPISILYLDKGVVTYKFKYEGMAVSECGCR,1,0.00035,360000,2.1,0.00019,91000,2.4,5.5e-05,23000,0.02,2.8e-06,140000,0.32,7.8e-05,250000,1,1.9e-05,19000,2.3,7.9e-05,kon [9]: 34000 M⁻¹ s⁻¹; Kd [10]: 0.58 nM; koff [10]: 3.8e-05 s⁻¹; kon [10]: 65000 M⁻¹ s⁻¹; Kd [11]: 1.8 nM; koff [11]: 0.00017 s⁻¹; kon [11]: 94000 M⁻¹ s⁻¹; Kd [12]: 1.8 nM; koff [12]: 0.00015 s⁻¹; kon [12]: 90000 M⁻¹ s⁻¹; Kd [13]: 0.86 nM; koff [13]: 0.00018 s⁻¹; kon [13]: 210000 M⁻¹ s⁻¹; Kd [14]: 2.5 nM; koff [14]: 0.00021 s⁻¹; kon [14]: 83000 M⁻¹ s⁻¹

# Further lines, with some results ahead:
Kd (ACVR2A GBD-Fc (human) [1]) [nM],koff (ACVR2A GBD-Fc (human) [1]) [s⁻¹],kon (ACVR2A GBD-Fc (human) [1]) [M⁻¹ s⁻¹],Kd [2] [nM],koff [2] [s⁻¹],kon [2] [M⁻¹ s⁻¹],Kd [3] [nM],koff [3] [s⁻¹],kon [3] [M⁻¹ s⁻¹],Kd [5] [nM],koff [5] [s⁻¹],kon [5] [M⁻¹ s⁻¹],Kd [7] [nM],koff [7] [s⁻¹],kon [7] [M⁻¹ s⁻¹],Kd [8] [nM],koff [8] [s⁻¹],kon [8] [M⁻¹ s⁻¹],Kd [9] [nM],koff [9] [s⁻¹],Binder,also measured
0.052,0.00018,3.5e+06,,,,,,,,,,,,,,,,,,GDF11 (ligand) NLGLDCDEHSSESRCCRYPLTVDFEAFGWDWIIAPKRYKANYCSGQCEYMFMQKYPHTHLVQQANPRGSAGPCCTPTKMSPINMLYFNDKQQIIYGKIPGMVVDRCGCS,
0.053,7.4e-05,1.4e+06,2.3,0.0018,790000,0.71,0.00062,880000,1.3,0.00058,430000,1.1,0.00044,400000,0.28,0.00019,670000,1.4,0.00082,activin B (ligand) GLECDGRTNLCCRQQFFIDFRLIGWNDWIIAPTGYYGNYCEGSCPAYLAGVPGSASSFHTAVVNQYRMRGLNPGTVNSCCIPTKLSTMSMLYFDDEYNIVKRDVPNMIVEECGCA,Kd (ACVR2A GBD-Fc (human) [4]): 0.0016 nM; koff (ACVR2A GBD-Fc (human) [4]): 9.7e-06 s⁻¹; kon (ACVR2A GBD-Fc (human) [4]): 6.1e+06 M⁻¹ s⁻¹; koff [6]: 0.00082 s⁻¹; kon [9]: 580000 M⁻¹ s⁻¹; Kd [10]: 2.9 nM; koff [10]: 0.0013 s⁻¹; kon [10]: 440000 M⁻¹ s⁻¹; Kd [11]: 4.1 nM; kon [11]: 470000 M⁻¹ s⁻¹; Kd [12]: 1.8 nM; koff [12]: 0.00072 s⁻¹; kon [12]: 400000 M⁻¹ s⁻¹; Kd [13]: 2.6 nM; koff [13]: 0.0015 s⁻¹; kon [13]: 610000 M⁻¹ s⁻¹; Kd [14]: 5 nM; koff [14]: 0.0021 s⁻¹; kon [14]: 420000 M⁻¹ s⁻¹
,,,3.2,0.00014,42000,,,,,,,,,,,,,,,Nodal (ligand) HHLPDRSQLCRKVKFQVDFNLIGWGSWIIYPKQYNAYRCEGECPNPVGEEFHPTNHAYIQSLLKRYQPHRVPSTCCAPVKTKPLSMLYVDNGRVLLDHHKDMIVEECGCL,

# Reference: paper PMC9234707
